This assay has as its target T1, ubiquitin-vinylmethylester (UniProt P0CG48 1-76, vinylmethylester (Michael acceptor) added to the C-terminus).
T1 construct: also called ubiquitin-VME; ubiquitin probe
As to the kind of experiment: covalent adduct formation with electrophilic (activity-based) probe, SDS-PAGE and Coomassie staining. The note with it: both partners purified.

Data on one molecule can be found in article PMC1847702 (PLoS ONE, 2007).

B1: His-tagged elaD, bacterially expressed (enzyme)
chain: MMVTVVSNYCQLSQTQLSQTFAEKFTVTEELLQSLKKTALSGDEESIELLHNIALGYDKFGKEAEDILYHIVRTPTNETLSIIRLIKNACLKLYNLAHIATNSPLKSHDSDDLLFKKLFSPSKLMTIIGDEIPLISEKQSLSKVLLNDENNELSDGTNFWDKNRQLTTDEIACYLQKIAANAKNTQVNYPTGLYVPYSTRTHLEDALNENIKSDPSWPNEVQLFPINTGGHWILVSLQKIVNKKNNKLQIKCVIFNSLRALGYDKENSLKRVINSFNSELMGEMSNNNIKVHLNEPEIIFLHADLQQYLSQSCGAFVCMAAQEVIEQRESNSDSAPYTLLKNHADRFKKYSAEEQYEIDFQHRLANRNCYLDKYGDANINHYYRNLEIKHSQPKNRASGKRVS
notes: also called recombinant elaD
On to B1, for which the binding result was “binds”.
